{"source": "paper PMC3902126", "key": {"[1]": {"biological_target": "Brucella abortus RicA (Rab2 interacting conserved protein A), His6-RicA (1-175) (Brucella abortus)", "test": "ITC"}, "[2]": {"biological_target": "Brucella abortus RicA (Rab2 interacting conserved protein A), His6-RicA (1-175) (Brucella abortus)", "test": "ITC", "remark": "listed apart in the source"}}, "note": "Read-outs that look alike come from different tables or passages of the source.", "data": [{"substance": "Homo sapiens Rab2 (1-212) (from UniProt P61019 1-212) (natural protein)", "values": [{"measurement": "Kd", "setting": "[1]", "value": 36, "unit": "µM"}, {"measurement": "Kd", "setting": "[2]", "value": 40, "unit": "µM"}]}]}
